Reference: PMC4509546, “Structural Characterization of the Chaetomium thermophilum TREX-2 Complex and its Interaction with the mRNA Nuclear Export Factor Mex67:Mtr2” (Structure(London, England:1993), 2015)

What was measured:
[1] = molecular target: GST-tagged ctSac3N^(1-210) (Chaetomium thermophilum) (UniProt G0SGL4); test: SPR; GST-tagged ligands captured by anti-GST antibody on CM5 chip; ctMex67:Mtr2 injected at 0.11-10 μM for 120 s, dissociation 600 s; BIAcore T200, 30 μl/min, 25°C, 20 mM Na-HEPES pH 7.5, 400 mM NaCl, 2 mM MgCl2, 5% glycerol, 0.01% NP-40; double exponential fits
[2] = molecular target: GST-tagged ctNup145^(213-567) (Chaetomium thermophilum); test: as above
[3] = molecular target: GST-tagged ctMlp1^(1797-1960) (Chaetomium thermophilum); test: as above
Chain of GST-tagged ctMlp1^(1797-1960) (Chaetomium thermophilum) (G0SA56 1797-1960): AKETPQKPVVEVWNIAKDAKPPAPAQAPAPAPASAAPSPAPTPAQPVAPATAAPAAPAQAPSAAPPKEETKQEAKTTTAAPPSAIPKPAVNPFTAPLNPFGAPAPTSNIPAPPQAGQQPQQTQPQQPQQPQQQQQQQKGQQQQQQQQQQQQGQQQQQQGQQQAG

[4] = molecular target: T1, C. thermophilum TREX-2 CID region complex (ctSac3^CID:ctSus1:ctCdc31) (Chaetomium thermophilum, UniProt G0SGL4 1086-1170; G0S6Y1 1-168; G0SAR7 1-177); test: SPR; ctSac3 CID region with the Sac3N FG region; who was immobilised is not told in the text (Figure S2); general SPR conditions: BIAcore T200, 25°C, 20 mM Na-HEPES pH 7.5, 400 mM NaCl, 2 mM MgCl2, 5% glycerol, 0.01% NP-40; settings: both partners purified
T1 construct: as m1; Sus1, Chaetomium thermophilum, locus CTHT_0027270; as m2; as m3; Used here for the SPR of 'the ctSac3 CID region' with Sac3N; also called ctSac3 CID region; CID region of TREX-2; source: E. coli, co-expressed, purified (GSH, TEV cleavage, size-exclusion chromatography); copies: 1 + 1 + 1
T1 sequence 1: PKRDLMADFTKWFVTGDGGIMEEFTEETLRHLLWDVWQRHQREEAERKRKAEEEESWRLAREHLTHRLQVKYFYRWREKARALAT
T1 sequence 2: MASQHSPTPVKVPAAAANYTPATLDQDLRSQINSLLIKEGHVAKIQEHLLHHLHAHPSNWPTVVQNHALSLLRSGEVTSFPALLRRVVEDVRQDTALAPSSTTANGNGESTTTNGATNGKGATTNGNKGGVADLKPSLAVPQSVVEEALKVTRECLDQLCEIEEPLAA
T1 sequence 3: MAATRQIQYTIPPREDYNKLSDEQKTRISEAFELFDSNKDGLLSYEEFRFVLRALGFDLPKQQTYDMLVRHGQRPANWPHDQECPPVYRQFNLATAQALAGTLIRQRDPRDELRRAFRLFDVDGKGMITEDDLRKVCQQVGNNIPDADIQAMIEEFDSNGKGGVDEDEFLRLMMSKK

In the case of ctMex67:Mtr2 complex, the KD1 [1] is reported as 39 nM, the KD2 [1] is reported as 148 nM and the koff1 [1] is reported as 0.073 s⁻¹. For the same molecule, the koff2 [1] was 0.0049 s⁻¹, the kon1 [1] was 1.9e+06 M⁻¹ s⁻¹ and the kon2 [1] was 33000 M⁻¹ s⁻¹. For the same molecule, the KD1 [2] was 238 nM, the KD2 [2] was 264 nM and the koff1 [2] was 0.071 s⁻¹. For the same molecule, the koff2 [2] was 0.0074 s⁻¹, the kon1 [2] was 300000 M⁻¹ s⁻¹ and the kon2 [2] was 28000 M⁻¹ s⁻¹. The KD1 [3] was 309 nM, the KD2 [3] was 419 nM and the koff1 [3] was 0.071 s⁻¹. For the same molecule, the koff2 [3] was 0.0088 s⁻¹, the kon1 [3] was 230000 M⁻¹ s⁻¹ and the kon2 [3] was 21000 M⁻¹ s⁻¹.

B1: GST-tagged ctSac3N^(1-210) (domain or fragment, Chaetomium thermophilum, UniProt G0SGL4 1-210, looked up)
chain: MMAPANNPFGAPPAQVNNPFASPAPSNQGSSVFGAPAQSTFGAPSSNNPFGASSAKPSGAPAANPFGAPIKNPFGASAQNAQNKPFGAPTAGNGSSLAAANPFGAASGQTSAFGSTPAGSAPQSKGSSRQPSPAGRQNQSGRQQANLVGAPQGPSGKKRTPSPFDTRQRTQAPSKRAQASEESDSDAMSGRKSKGKGFGGLKSQPPAANK
notes: also called GST-Sac3N; GST-Sac3; source: E. coli (general method), captured on an anti-GST antibody-coated CM5 chip
For B1, the Kd [4] was 2.2 µM, the koff [4] was 0.00052 s⁻¹ and the kon [4] was 235 M⁻¹ s⁻¹.
